B1: PDA0044 (antibody, human IgG1, kappa, V domains shown)
VH: QSVEESGGRLVTPGTPLTLTCTASGFSLSGYYMSWVRQAPGKGLEWIGSISYGGSTYYASWAKGRFTISKTSTTVDLKITSPTTEDTATYFCAAGYTTNTAFDPWGPGTLVTVSS
VL: AFELTQTPSSVEAAVGGTVTIKCQASQSISSYLAWYQQKPGQPPKLLIYGASNLKSGVPSRFKGSGSGTQFTLTISDLEAADAATYYCQSYYYSSSSSYSFGGGTEVVVKR
B2: PDA0107 (antibody, human IgG1, kappa, V domains shown)
VH: QSVEESGGRLVTPGTPLTLTCTVSGFSLSRYYMSWVRQAPGKGLEWIGYIYADSGSTWYASWAKGRFTISKTSTTVDLKMTSLTTEDTATYFCARRADHDGAFDLWGPGTLVTVSS
VL: AAVLTQTPSPVSAAVGGTVSISCQSSQSVYGKNELSWYQQKPGQPPKLLIYYASTLASGVPSRFSGSGSGTQFALTISGVQADDAATYYCAGGYSSSVDTTFGGGTEVVVKR
B3: PDA0129 (antibody, human IgG1, kappa, V domains shown)
VH: QSVEESGGRLVTPGTPLTLTCTVSGFSLSSYDMSWVRQAPGKGLEYIGIISSSGSTYYASWAKGRFTISKTSTTVDLKITSPTTEDTATYFCARLGYVGYGYADIWGPGTLVTVSS
VL: IEMTQTPFSVSAAVGGTVTIKCQASEDIYSLLAWYQQKPGQPPKLLIYSASTLASGVPSRFKGSGYGTEFTLTISGVQAADAATYYCQGGYYSSSADNTFGGGTEVVVKR
B4: PDA0138 (antibody, human IgG1, kappa, V domains shown)
VH: QSVEESGGRLVTPGTPLTLTCTVSGFSLSSYHMCWVRQPPGKGLEYIGIISGGAITYYATWAKGRFTISITSSTTVDLKITSPTTEDTATYFCARGGGYGGGDYNFDLWGQGTLVTVSS
VL: AAVLTQTPSPVSAAVGATVSISCQSSQSVYGNSELAWYQQKPGQRPKLLIFEASKLASGVPSRFSGSGSGTQFSLAISDVQADDAATYYCAGGYSSTSDTTFGGGTEVVVKR
B5: PDC0037 (antibody, human IgG1, kappa, V domains shown)
VH: QSVEESGGRLVTPGTPLTLTCTVSGFSLSYYAMIWVRQAPGKGLEWIGFINSYGKTYYANWAKGRFTISKTSTTVDLKMTSLTSEDTATYFCARERDNYHFNLWGQGTLVTVSS
VL: AQVLTQTPSPVSAAVGGTVTISCQSSESVYNNNWLAWYQQKPGQPPKFLIYDASTLASGVPSRFSGSGSGTQFTLTISGVQADDAATYYCQGTYYSSDWYFVFGGGTEVVVKR
B6: PDC0053 (antibody, human IgG1, kappa, V domains shown)
VH: QQHLVESGGGLVKPGASLTLTCKASGFYFSGYYYMSWVRQAPGKGLEWIASIYSGGSGNTYYASWAKGRFTISKTSSTTVTLQMTSLTAADTATYFCARGADYTHDYPADAAAWSFDPWGPGTLVTVSS
VL: DIVMTQTPASVEAAVGGIVTIKCQASQSISSYLAWYQQKPGQPPNLLIYRASTLASGVPSRFKGSGSGTQFTLTISDLEAADAATYYCQGYHFSSTSSNYGNAFGGGTEVVVKR
B7: PDE0171 (antibody, human IgG1, kappa, V domains shown)
VH: QSLEESGGGLVKPGASLTLTCTASGFSFSGSYYMCWVRQAPGKGLECIACIYAGSSGATYYASWAKGRFTVSKTSSTTVTLQMTSLTAADTATYFCARHTNGIGLGLWGPGTLVTVSS
VL: DIVMTQTPASVSAAVGGTVSINCQASEDIENFLAWYQQKPGQPPSLLIYETSKLASGVPSRFSGSGSGTEFTLTISDLEAADAATYYCQSYDWSDSSTYDNTFGGGTEVVVKR
B8: GY5 (antibody, human IgG1, kappa, V domains shown)
VH: QVQLQQSGPELVRPGVSVKISCKGSGHTFTDYALHWVRQSHVKSLEWIGVISSYNGITNYNQRFKGKATMTVDKSSSTAYLELARLTSEDSAIYYCSREEWDVFYYFDYWGQGTTLTVSS
VL: DIMLTQSPLSLPVSLGDQASISCRSSQGIVHSDGNTYLEWYLQKPGQSPKLLIYKVSNRFSGVPDRFSGSGSGTDFILKISRVEAEDLGVYYCFQGSHVPYTFGGGTKLEIKR
B9: GY14 (antibody, human IgG1, kappa, V domains shown)
VH: QVQLQQSGAELVRPGASVKLSCKALGDTFTDYEIHWVKQTPVHGLEWIGVIHPGSGGTVYNQKFKGKATLTADKYSSTAYMELSSLTSEDSAVYYCTREGMNTDWYFDVWGAGTTVTVSS
VL: DILMTQDELSLPVSLGDQASISCRSSQTIVHTNGNTYLEWYLQKPGQSPKLLIYKVSNRFSGVPDRFSGSGSGTYFTLKISRLEAEDLGVYYCFQGSHVPYTFGGGTKLEMKR

molecular target: T1, human PD1 on NFAT-luc2/PD1 Jurkat Cell line (Promega, #CS187102) (human, UniProt Q15116 25-288); experiment: flow cytometry on NFAT-luc2/PD1 Jurkat cells, Ab 10 micro g/mL, detected with Goat F(ab')2 anti-Human IgG-PE
T1 construct: whole, on cells; also called PD1+Jurkat cells; human PD1-expressing cell line
T1 sequence (Q15116 25-288): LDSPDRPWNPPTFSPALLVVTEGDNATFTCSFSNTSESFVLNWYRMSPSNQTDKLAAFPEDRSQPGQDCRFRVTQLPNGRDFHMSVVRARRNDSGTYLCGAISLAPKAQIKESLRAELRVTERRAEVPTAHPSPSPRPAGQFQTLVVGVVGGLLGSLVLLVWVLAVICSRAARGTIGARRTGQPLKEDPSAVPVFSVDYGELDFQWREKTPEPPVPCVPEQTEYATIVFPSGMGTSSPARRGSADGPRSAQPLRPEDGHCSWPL
From the text: Unbound Abs were removed by washing twice with staining buffer.

Row | Binder | binding result
1 | B1 | binds
2 | B2 | binds
3 | B3 | binds
4 | B4 | binds
5 | B5 | binds
6 | B6 | binds
7 | B7 | binds
8 | B8 | binds
9 | B9 | binds
